Earlier results in publication PMC10651016.

Tested on: Lys110
Test: kinetics
Settings: steady-state turnover with L-proline; FAD-bound enzyme

L-proline dehydrogenase (ProDH) (Mycobacterium tuberculosis)
pKa: 6.8
